Target: IgB-1 (UniProt P00533 25-645)
Assay: ELISA

binding result: binds
B1: heparin-binding EGF like growth factor (ligand, UniProt Q99075 63-148, looked up)
chain: DLQEADLDLLRVTLSSKPQALATPNKEEHGKRKKKGKGLGKKRDPCLRKYKDFCIHGECKYVKELRAPSCICHPGYHGERCHGLSL

From paper PMC3290749 (Oncogene, 2011)
